Test results published in patent US11541107B2, “Peptides and T cells for use in immunotherapeutic treatment of various cancers” (Immatics Biotechnologies GmbH, priority 2015, dated 2023).

Biological target: HLA-A*02 (Homo sapiens, UniProt P04439, D140Y/D185E/D98H/E176V/E277Q/G131W/G231S/I119V/I121R/I166T/I218V/L300P/N151K/N90K/P208A/P217A/Q86G/Q94H/R138H/R169H)
Test: MHC binding assay, UV-ligand exchange with beta2m ELISA, HLA-A*02
Conditions: binding to HLA-A*02 ranged by peptide exchange yield (UV-ligand exchange, beta2m ELISA)
Source text: Candidate peptides for T cell based therapies according to the present invention were further tested for their MHC binding capacity (affinity). The individual peptide-MHC complexes were produced by UV-ligand exchange, where a UV-sensitive peptide is cleaved upon UV-irradiation, and exchanged with the peptide of interest as analyzed. Only peptide candidates that can effectively bind and stabilize the peptide-receptive MHC molecules prevent dissociation of the MHC complexes. To determine the yield of the exchange reaction, an ELISA was performed based on the detection of the light chain (ß2 m) of stabilized MHC complexes. The assay was performed as generally described in Rodenko et al. (Rodenko et al., 2006).
96 well MAXISorp plates (NUNC) were coated over night with 2 ug/ml streptavidin in PBS at room temperature, washed 4× and blocked for 1 h at 37° C. in 2% BSA containing blocking buffer. […] Peptide-MHC monomers of the UV-exchange reaction were diluted 100 fold in blocking buffer. Samples were incubated for 1 h at 37° C., washed four times, incubated with 2 ug/ml HRP conjugated anti-β2 m for 1h at 37° C., washed again and detected with TMB solution that is stopped with […]. Absorption was measured at 450 nm. Candidate peptides that show a high exchange yield (preferably higher than 50%, most preferred higher than 75%) are generally preferred for a generation and production of antibodies or fragments thereof, and/or T cell receptors or fragments thereof, as they show sufficient avidity to the MHC molecules and prevent dissociation of the MHC complexes.

Substance	Peptide exchange
31 (ALSDETKNNWEV; listed as Homo sapiens) [compound 31]	++++ (>=75% = ++++)
32 (ILADEAFFSV; listed as Homo sapiens) [compound 32]	+++ (50%-75% = +++)
33 (LLLPLLPPLSPSLG; listed as Homo sapiens) [compound 33]	+++ (50%-75% = +++)
35 (YVLPKLYVKL; listed as Homo sapiens) [compound 35]	++ (20%-49% = ++)
36 (KLYGIEIEV; listed as Homo sapiens) [compound 36]	++++ (>=75% = ++++)
37 (ALINDILGELVKL; listed as Homo sapiens) [compound 37]	+++ (50%-75% = +++)
38 (KMQEDLVTL; listed as Homo sapiens) [compound 38]	+++ (50%-75% = +++)
39 (ALMAVVSGL; listed as Homo sapiens) [compound 39]	+++ (50%-75% = +++)
40 (SLLALPQDLQA; listed as Homo sapiens) [compound 40]	+++ (50%-75% = +++)
41 (FVLPLVVTL; listed as Homo sapiens) [compound 41]	+++ (50%-75% = +++)
42 (VLSPFILTL; listed as Homo sapiens) [compound 42]	+++ (50%-75% = +++)
44 (GLLWQIIKV; listed as Homo sapiens) [compound 44]	++ (20%-49% = ++)
45 (VLGPTPELV; listed as Homo sapiens) [compound 45]	+++ (50%-75% = +++)
46 (SLAKHGIVAL; listed as Homo sapiens) [compound 46]	+++ (50%-75% = +++)
47 (GLYQAQVNL; listed as Homo sapiens) [compound 47]	+++ (50%-75% = +++)
48 (TLDHKPVTV; listed as Homo sapiens) [compound 48]	++ (20%-49% = ++)
49 (LLDESKLTL; listed as Homo sapiens) [compound 49]	+++ (50%-75% = +++)
50 (EYALLYHTL; listed as Homo sapiens) [compound 50]	++ (20%-49% = ++)
51 (LLLDGDFTL; listed as Homo sapiens) [compound 51]	+++ (50%-75% = +++)
52 (ELLSSIFFL; listed as Homo sapiens) [compound 52]	+++ (50%-75% = +++)
53 (SLLSHVIVA; listed as Homo sapiens) [compound 53]	+++ (50%-75% = +++)
54 (FINPKGNWLL; listed as Homo sapiens) [compound 54]	+++ (50%-75% = +++)
55 (IASAIVNEL; listed as Homo sapiens) [compound 55]	++ (20%-49% = ++)
56 (KILDLTRVL; listed as Homo sapiens) [compound 56]	++ (20%-49% = ++)
57 (VLISSTVRL; listed as Homo sapiens) [compound 57]	++ (20%-49% = ++)

Substance	Peptide exchange
58 (ALDDSLTSL; listed as Homo sapiens) [compound 58]	++ (20%-49% = ++)
59 (ALTKILAEL; listed as Homo sapiens) [compound 59]	+++ (50%-75% = +++)
60 (FLIDTSASM; listed as Homo sapiens) [compound 60]	++ (20%-49% = ++)
61 (HLPDFVKQL; listed as Homo sapiens) [compound 61]	++ (20%-49% = ++)
62 (SLFNQEVQI; listed as Homo sapiens) [compound 62]	+++ (50%-75% = +++)
63 (TLSSERDFAL; listed as Homo sapiens) [compound 63]	+ (<20% = +)
64 (GLSSSSYEL; listed as Homo sapiens) [compound 64]	++ (20%-49% = ++)
65 (KLDGICWQV; listed as Homo sapiens) [compound 65]	+++ (50%-75% = +++)
66 (FITDFYTTV; listed as Homo sapiens) [compound 66]	+++ (50%-75% = +++)
67 (GVIETVTSL; listed as Homo sapiens) [compound 67]	++ (20%-49% = ++)
69 (GIYDGILHSI; listed as Homo sapiens) [compound 69]	+++ (50%-75% = +++)
70 (GLFSQHFNL; listed as Homo sapiens) [compound 70]	+++ (50%-75% = +++)
71 (GLITVDIAL; listed as Homo sapiens) [compound 71]	+++ (50%-75% = +++)
72 (GMIGFQVLL; listed as Homo sapiens) [compound 72]	+++ (50%-75% = +++)
74 (ILDETLENV; listed as Homo sapiens) [compound 74]	++ (20%-49% = ++)
75 (ILDNVKNLL; listed as Homo sapiens) [compound 75]	+++ (50%-75% = +++)
76 (ILLDESNFNHFL; listed as Homo sapiens) [compound 76]	+++ (50%-75% = +++)
77 (IVLSTIASV; listed as Homo sapiens) [compound 77]	+++ (50%-75% = +++)
78 (LLWGHPRVA; listed as Homo sapiens) [compound 78]	+++ (50%-75% = +++)
79 (SLVPLQILL; listed as Homo sapiens) [compound 79]	++++ (>=75% = ++++)
80 (TLDEYLTYL; listed as Homo sapiens) [compound 80]	+++ (50%-75% = +++)
81 (VLFLGKLLV; listed as Homo sapiens) [compound 81]	++ (20%-49% = ++)
82 (VLLRVLIL; listed as Homo sapiens) [compound 82]	++ (20%-49% = ++)
83 (ELLEYLPQL; listed as Homo sapiens) [compound 83]	+++ (50%-75% = +++)
84 (FLEEEITRV; listed as Homo sapiens) [compound 84]	+++ (50%-75% = +++)

Substance	Peptide exchange
85 (STLDGSLHAV; listed as Homo sapiens) [compound 85]	+++ (50%-75% = +++)
87 (YLTEVFLHVV; listed as Homo sapiens) [compound 87]	+++ (50%-75% = +++)
88 (ILLNTEDLASL; listed as Homo sapiens) [compound 88]	+++ (50%-75% = +++)
89 (YLVAHNLLL; listed as Homo sapiens) [compound 89]	+++ (50%-75% = +++)
90 (GAVAEEVLSSI; listed as Homo sapiens) [compound 90]	+ (<20% = +)
91 (SSLEPQIQPV; listed as Homo sapiens) [compound 91]	+ (<20% = +)
92 (LLRGPPVARA; listed as Homo sapiens) [compound 92]	++ (20%-49% = ++)
93 (SLLTQPIFL; listed as Homo sapiens) [compound 93]	+++ (50%-75% = +++)
321 (SLWFKPEEL; listed as Homo sapiens) [compound 321]	+++ (50%-75% = +++)
323 (ILSVVNSQL; listed as Homo sapiens) [compound 323]	+++ (50%-75% = +++)
324 (AIFDFCPSV; listed as Homo sapiens) [compound 324]	++++ (>=75% = ++++)
325 (RLLPKVQEV; listed as Homo sapiens) [compound 325]	++ (20%-49% = ++)
326 (SLLPLVWKI; listed as Homo sapiens) [compound 326]	+++ (50%-75% = +++)
327 (SIGDIFLKY; listed as Homo sapiens) [compound 327]	+++ (50%-75% = +++)
328 (SVDSAPAAV; listed as Homo sapiens) [compound 328]	++ (20%-49% = ++)
329 (FAWEPSFRDQV; listed as Homo sapiens) [compound 329]	++ (20%-49% = ++)
330 (FLWPKEVEL; listed as Homo sapiens) [compound 330]	+++ (50%-75% = +++)
331 (AIWKELISL; listed as Homo sapiens) [compound 331]	+++ (50%-75% = +++)
333 (GTFLEGVAK; listed as Homo sapiens) [compound 333]	+++ (50%-75% = +++)
334 (GRADALRVL; listed as Homo sapiens) [compound 334]	+++ (50%-75% = +++)
335 (VLLAAGPSAA; listed as Homo sapiens) [compound 335]	++ (20%-49% = ++)
336 (GLMDGSPHFL; listed as Homo sapiens) [compound 336]	++ (20%-49% = ++)
337 (KVLGKIEKV; listed as Homo sapiens) [compound 337]	+++ (50%-75% = +++)
